B1: C277S-HC263: C277S variant of Thermotoga maritima perhydrolase fused via a flexible linker to hair-binding domain HC263 (protein)
chain: MAFFDLPLEELKKYRPERYEEKDFDEFWEETLAESEKFPLDPVFERMESHLKTVEAYDVTFSGYRGQRIKGWLLVPKLEEEKLPCVVQYIGYNGGRGFPHDWLFWPSMGYICFVMDTRGQGSGWLKGDTPDYPEGPVDPQYPGFMTRGILDPRTYYYRRVFTDAVRAVEAAASFPQVDQERIVIAGGSQGGGIALAVSALSKKAKALLCDVPFLCHFRRAVQLVDTHPYAEITNFLKTHRDKEEIVFRTLSYFDGVNFAARAKIPALFSVGLMDNISPPSTVFAAYNYYAGPKEIRIYPYNNHEGGGSFQAVEQVKFLKKLFEKGGPGSGGAGSPGSAGGPGSPSAQSQLPDKHSGLHERAPQRYGPEPEPEPEPIPEPPKEAPVVIEKPKPKPKPKPKPPAHDHKNQKETHQRHAAGSGGGGSPHHHHHH
B2: C277S: non-targeted C277S variant of the Thermotoga maritima perhydrolase, un-targeted control (protein, listed as Thermotoga maritima)
chain: MAFFDLPLEELKKYRPERYEEKDFDEFWEETLAESEKFPLDPVFERMESHLKTVEAYDVTFSGYRGQRIKGWLLVPKLEEEKLPCVVQYIGYNGGRGFPHDWLFWPSMGYICFVMDTRGQGSGWLKGDTPDYPEGPVDPQYPGFMTRGILDPRTYYYRRVFTDAVRAVEAAASFPQVDQERIVIAGGSQGGGIALAVSALSKKAKALLCDVPFLCHFRRAVQLVDTHPYAEITNFLKTHRDKEEIVFRTLSYFDGVNFAARAKIPALFSVGLMDNISPPSTVFAAYNYYAGPKEIRIYPYNNHEGGGSFQAVEQVKFLKKLFEKG

Experiments:
[1] = Single fiber tensile strength and bleaching start after two-step enzymatic application
Method: Hair samples were cut into pieces 4-inches in length. The denier number (liner mass density) of each hair fiber was measured by Textechno Vibromat Instrument (Textechno Herbert Stein GmbH & Co. KG; Germany). The hair fibers were tested according to ASTM D 3822-01 (“Tensile Properties of Single Textile Fibers”; ASTM International, West Conshohocken, Pa., 2001), on an Instron testing system (Instron Model 1122 Tester; Instron, Mass.) at about 70° F. (approximately 21° C.) and 65% relative humidity. The treated area of the hair sample was placed in the middle of the gauge and both ends were gripped on the test heads. Both fiber ends were attached on a piece of tape, respectively, for easy handling and gripping on the test heads. The test used 2-inch (5.1 cm) gauge length, […], and 1.2 inch/min (3 cm/min) pulling rate. The force-strain curve of the fiber was recorded during the test. The tenacity at maximum (gf/den) was calculated by dividing maximum force (gf) by denier number (den). Note that (gf/den)/11.33=Newtons/tex (N/tex).
In a two-step application, the hair strands are first treated with perhydrolase solutions to allow the enzyme to bind hair. The hair strands are then dried or rinsed with buffer and dried. The rinse step is intended to remove excess unbound enzyme from the hair. The hair strands are soaked in triacetin and H2O2 solutions. The application is repeated for multiple times.
One experiment was carried out with C277S-HC263 and untargeted T. maritima variant C277S using the following protocol: • 1. Enzyme solutions comprising 0.5 mg/mL enzyme in 50 mM phosphate buffer (pH 8) were made with or without 10 wt % urea. • 2. Seven (7) hair strands were soaked in 0.2 mL of an enzyme solution for 10 min and then dried under N2 without prior rinsing. • 3. The hair strands were then soaked in 0.2 mL of a pH 8 solution containing 100-mM triacetin and 250-mM H2O2 for 15 min, dried, then rinsed with DI water and then dried again. • 4. Steps 2-3 were repeated up to 15 times.
Another experiment was carried out with C277S-HC263 (SEQ ID NO: 288), CPAH-HC263 (SEQ ID NO: 294), CPAH-HC1010 (SEQ ID NO: 295) and untargeted C277S using the following protocol: • 1. Enzyme solutions comprising 1.0 mg/mL enzyme in 50 mM phosphate buffer (pH 6) were prepared. For solutions containing two enzymes, the concentration of each enzyme was approximately 0.5 mg/mL. • 2. Seven (7) hair strands were soaked in 0.2 mL of an enzyme solution for 10 min, rinsed with 50 mM phosphate buffer (pH 6), and then dried under N2. • 3. The dried hair strands were then soaked into 0.2 mL of 50 mM phosphate buffer solution (pH 8) comprising 100 mM triacetin and 250 mM H2O2 for 15 min, dried, then rinsed with DI water and then dried again. • 4.

[2] = Two-step treatment of hair tresses, color loss ΔE; conditions: 2500 μg/mL (E/H 10), 20 min/cycle, 1 cycle
[3] = two-step with buffer rinse, 1.0 mg/mL enzyme pH 6, 100 mM triacetin, 250 mM H2O2, up to 13 repeats
[4] = two-step without rinse, 0.5 mg/mL enzyme pH 8, urea 0 wt %
[5] = two-step without rinse, 0.5 mg/mL enzyme pH 8, urea 0 wt %, 100 mM triacetin, 250 mM H2O2
[6] = two-step without rinse, 0.5 mg/mL enzyme pH 8, urea 10 wt %, 100 mM triacetin, 250 mM H2O2

Molecule	Tenacity @ max [1, 3] [gf/den]	Bleaching Start [1, 4] [th]	Tenacity @ max [1, 5] [gf/den]	Tenacity @ max [1, 6] [gf/den]	ΔE of color loss [2]	Bleaching Start ([1]; two-step without rinse, 0.5 mg/mL enzyme pH 8, urea 10 wt %) [th]
B1	1.7	15	1.2	1.7	2	–
B2	1.7	13	0.7	0.6	–	12

Source: patent publication US20130171217A1, “ENZYMATIC PERACID GENERATION FOR USE IN SKIN CARE PRODUCTS” (E I DU PONT DE NEMOURS AND COMPANY, priority 2010, published 2013)
